We go through four molecules from patent US20250186597A1, “TARGETED IMMUNE ACTIVATION WITH IL-18 IMMUNOCYTOKINES” (BRIGHT PEAK THERAPEUTICS AG, priority 2023, published 2025).

Substitutions are numbered along the chain they refer to. Numbers in names are those of the source.

In assay [1] the test system is NK92 cells. The experiment in a line: IFN gamma secretion assay in NK92 cells (Example 10). The assay is classed as cell-based, human. The conditions noted are these: IFNγ secretion, 1 ng/ml IL-12. The procedure: The IFNγ-secretion stimulating activity of the unconjugated IL-18 variants and corresponding IL-18 immunocytokines was evaluated on NK92 cell line. The NK cell line NK-92 derived from a patient with lymphoma (ATCC, Cat #CRL-2407) was cultured in aMEM medium supplemented with 12.5% FCS, 12.5% horse serum (HS), 50 uM B-mercaptoEthanol, and 2 ng/ml of recombinant Human Interleukin-2 (IL-2).
On the day of experiment, cells were harvested and washed with aMEM medium without IL-2 and resuspended in medium (w/o IL-2) containing 1 ng/ml of recombinant human Interleukin-12 (SinoBiologicals, Cat #CT011-H08H). After counting, cells were seeded at 100 000 cells/well in a 384 well titer plate and incubated at 37° C./5% CO2. Sixteen 4-fold serial dilutions of IL-18 analytes were prepared in aMEM medium—1 ng/ml IL-12 and were added to the NK-92 cells. […]
After 16-20 h incubation at 37° C./5% CO2, 5 μl of supernatant were carefully transferred to a 384 microwells OPTIPlate (Perkin Elmer; Cat #6007270) and Interferon-gamma (IFNγ) levels measured using the Human IFNγ AlphaLISA Assay Kit (Perkin Elmer, Cat #AL217C). […] AlphaLisa signal was then measured on an Enspire plate reader (Perkin Elmer) using 680 and 615 nm as excitation and emission wavelengths respectively. Half maximal effective concentration (EC50) was calculated based on a variable slope, four parameter analysis using GraphPad PRISM software.

Assay [2] has as its system NK-92 cells. Kind of assay: IL-18 binding protein inhibition cellular assay in NK-92 cells (Example 4, used in Example 22C). The assay is classed as cell-based, human. Conditions: inhibition by IL-18BP of IFNg stimulation in NK92 cells.
For assay [3], the target named is T1, human IL-18BP (Homo sapiens, UniProt O95998).
T1 construct: His
T1 sequence (O95998 31-194): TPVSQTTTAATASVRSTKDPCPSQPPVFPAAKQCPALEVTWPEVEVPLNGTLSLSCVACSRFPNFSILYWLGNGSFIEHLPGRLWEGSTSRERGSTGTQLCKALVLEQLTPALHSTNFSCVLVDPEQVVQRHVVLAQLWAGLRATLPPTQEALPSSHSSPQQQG
The experiment in a line: IL-18BP binding alphaLISA assay (Example 4, used in Example 22B). Conditions: IL-18BP AlphaLISA.

The test system of assay [4] is NK-92 cells. Kind of assay: IFNγ induction cellular assay in NK-92 cells (Example 4, used in Example 22C). The assay is classed as cell-based, human. The conditions noted are these: IFNg stimulation in NK92 cells.

B1: SEQ ID NO: 60: IL-18 polypeptide: E6K, C38Q, K53A (protein)
chain: YFGKLKSKLSVIRNLNDQVLFIDQGNRPLFEDMTDSDQRDNAPRTIFIISMYADSQPRGMAVTISVKCEKISTLSCENKIISFKEMNPPDNIKDTKSDIIFFQRSVPGHDNKMQFESSSYEGYFLACEKERDLFKLILKKEDELGDRSIMFTVQNED
As to B1, the EC50 in assay [1] amounted to 0.008 nM.

B2: 59 (protein)
chain: B1 chain with Q38A
B2 returned an IC50 in assay [2] of 654 nM. The same molecule had an equilibrium dissociation constant (Kd) in assay [3] of 36 nM. The EC50 in assay [4] is 0.015 nM.

B3: 62 (protein)
chain: B1 chain with Q38A, C127A
B3: the IC50 in assay [2] was 284 nM. Besides, binding in assay [3] was characterised by a dissociation constant (Kd) of 69.6 nM. In addition, in assay [4], the response was half-maximal at 0.026 nM (EC50).

B4: 60 (protein)
chain: B1 chain
In assay [2], B4 came in with an IC50 of 780 nM. In assay [3], this molecule yielded a Kd of 24.8 nM. In assay [4], a half-maximal response (EC50) required 0.006 nM.
